Laboratory results reported in article PMC9210659.

Biological target: C16-Pks13(S1533A) (Pks13(S1533A) loaded with a C16 chain on the AT catalytic serine) (Mycobacterium tuberculosis H37Rv) (UniProt I6X8D2)
Test: SEC + other: SAXS

## C16-Pks13(S1533A) (Pks13(S1533A) loaded with a C16 chain on the AT catalytic serine) (from UniProt I6X8D2 1-1733) (enzyme)
  percent dimer: 60%
  stoichiometry N: 2
